Test results: the supplement of paper PMC9112550, “Optimization of the antimicrobial peptide Bac7 by deep mutational scanning” (BMC Biology, 2022)

These sequences were tested on Escherichia coli TOP10 (assay: shrunken log2 fold change of peptide-encoding DNA abundance (4.5 h post-induction vs induction); higher = less antimicrobial activity (less host growth inhibition)). Details: time post-induction: 4.5 h; library: site-saturation at positions 5, 18, 19, 20.
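Further: peptides expressed intracellularly from a pBAD plasmid library in pooled LB shake-flask culture, induced with 0.3% L-arabinose, DNA abundance read by NGS, three biological replicates, DESeq2 with apeglm shrinkage.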

Row | Sequence | shrunken log2 fold change
1 | RRIRVRPPRLPRPRPRPGRSPRP | 0.649
2 | RRIRFRPPRLPRPRPRPDVKPRP | -0.0558
3 | RRIRMRPPRLPRPRPRPRDVPRP | 0.372
4 | RRIRLRPPRLPRPRPRPETLPRP | 0.228
5 | RRIRQRPPRLPRPRPRPVRDPRP | 0.556
6 | RRIRFRPPRLPRPRPRPHLQPRP | -0.144
7 | RRIRIRPPRLPRPRPRPMYSPRP | -0.11
8 | RRIRDRPPRLPRPRPRPDVTPRP | 0.149
9 | RRIRYRPPRLPRPRPRPDPFPRP | -0.206
10 | RRIRSRPPRLPRPRPRPAMTPRP | 0.459
11 | RRIRERPPRLPRPRPRPNIKPRP | -0.788
12 | RRIRRRPPRLPRPRPRPICHPRP | 0.692
13 | RRIRFRPPRLPRPRPRPKLRPRP | 0.147
14 | RRIRARPPRLPRPRPRPVRQPRP | 0.855
15 | RRIRFRPPRLPRPRPRPVCYPRP | -0.495
16 | RRIRLRPPRLPRPRPRPYIDPRP | -0.00113
17 | RRIRHRPPRLPRPRPRPDEKPRP | -0.00141
18 | RRIRCRPPRLPRPRPRPNEDPRP | 0.0261
19 | RRIRWRPPRLPRPRPRPRSDPRP | 0.618
20 | RRIRMRPPRLPRPRPRPNQGPRP | -0.0312
21 | RRIRGRPPRLPRPRPRPPCAPRP | 0.978
22 | RRIRRRPPRLPRPRPRPMGYPRP | 0.0381
23 | RRIRRRPPRLPRPRPRPFHWPRP | -0.111
24 | RRIRIRPPRLPRPRPRPYHCPRP | -0.0272
25 | RRIRRRPPRLPRPRPRPHFEPRP | -0.211

Row | Sequence | shrunken log2 fold change
26 | RRIRVRPPRLPRPRPRPFRQPRP | 0.0805
27 | RRIRSRPPRLPRPRPRPKPGPRP | 0.283
28 | RRIRMRPPRLPRPRPRPAIYPRP | 0.0389
29 | RRIRLRPPRLPRPRPRPYMHPRP | -0.408
30 | RRIRIRPPRLPRPRPRPCTDPRP | -0.143
31 | RRIRYRPPRLPRPRPRPRHNPRP | -0.477
32 | RRIRKRPPRLPRPRPRPPNCPRP | 0.0388
33 | RRIRGRPPRLPRPRPRPFGMPRP | 0.228
34 | RRIRRRPPRLPRPRPRPAHKPRP | 0.386
35 | RRIRVRPPRLPRPRPRPEKWPRP | 0.0257
36 | RRIRSRPPRLPRPRPRPSEEPRP | -0.243
37 | RRIRDRPPRLPRPRPRPVTPPRP | 0.214
38 | RRIRNRPPRLPRPRPRPTLKPRP | 0.0241
39 | RRIRCRPPRLPRPRPRPKLTPRP | -0.223
40 | RRIRPRPPRLPRPRPRPGTEPRP | -0.0123
41 | RRIRERPPRLPRPRPRPTREPRP | 0.329
42 | RRIRQRPPRLPRPRPRPDLWPRP | 0.514
43 | RRIRMRPPRLPRPRPRPYCEPRP | -0.34
44 | RRIRARPPRLPRPRPRPGVTPRP | 0.611
45 | RRIRKRPPRLPRPRPRPPWYPRP | 0.131
46 | RRIRRRPPRLPRPRPRPHATPRP | 0.492
47 | RRIRGRPPRLPRPRPRPSYVPRP | 0.112
48 | RRIRLRPPRLPRPRPRPFVMPRP | -0.241
49 | RRIRMRPPRLPRPRPRPFPTPRP | 0.153
50 | RRIRARPPRLPRPRPRPNPSPRP | 0.262

Row | Sequence | shrunken log2 fold change
51 | RRIRARPPRLPRPRPRPRYNPRP | -0.487
52 | RRIRPRPPRLPRPRPRPMRGPRP | 0.887
53 | RRIRQRPPRLPRPRPRPGEFPRP | 0.313
54 | RRIRERPPRLPRPRPRPGIRPRP | -0.0819
55 | RRIRPRPPRLPRPRPRPMDYPRP | -0.165
56 | RRIRDRPPRLPRPRPRPYHFPRP | -0.277
57 | RRIRTRPPRLPRPRPRPLEQPRP | -0.102
58 | RRIRNRPPRLPRPRPRPADTPRP | 0.124
59 | RRIRERPPRLPRPRPRPEIEPRP | 0.0286
60 | RRIRPRPPRLPRPRPRPIHSPRP | -0.0694
61 | RRIRERPPRLPRPRPRPSHCPRP | 0.0392
62 | RRIRIRPPRLPRPRPRPDAMPRP | -0.112
63 | RRIRYRPPRLPRPRPRPGHLPRP | -0.0798
64 | RRIRHRPPRLPRPRPRPTFIPRP | -0.114
65 | RRIRSRPPRLPRPRPRPIWRPRP | 0.639
66 | RRIRCRPPRLPRPRPRPHFAPRP | 0.0672
67 | RRIRQRPPRLPRPRPRPANMPRP | -0.242
68 | RRIRLRPPRLPRPRPRPFDGPRP | -0.00197
69 | RRIRLRPPRLPRPRPRPNFYPRP | -0.141
70 | RRIRTRPPRLPRPRPRPQTQPRP | -0.0967
71 | RRIRCRPPRLPRPRPRPSYIPRP | -0.675
72 | RRIRNRPPRLPRPRPRPAFPPRP | -0.138
73 | RRIRTRPPRLPRPRPRPKFYPRP | -0.272
74 | RRIRWRPPRLPRPRPRPKRYPRP | 0.0352
75 | RRIRSRPPRLPRPRPRPMSKPRP | -0.032

Row | Sequence | shrunken log2 fold change
76 | RRIRMRPPRLPRPRPRPNGLPRP | 0.062
77 | RRIRKRPPRLPRPRPRPHLKPRP | 0.0906
78 | RRIRIRPPRLPRPRPRPFTWPRP | -0.924
79 | RRIRLRPPRLPRPRPRPCENPRP | 0.00489
80 | RRIRWRPPRLPRPRPRPSVMPRP | -0.333
81 | RRIRLRPPRLPRPRPRPDQIPRP | 0.018
82 | RRIRHRPPRLPRPRPRPMHSPRP | 0.0758
83 | RRIRTRPPRLPRPRPRPDVPPRP | -0.0167
84 | RRIRRRPPRLPRPRPRPKSAPRP | 0.237
85 | RRIRLRPPRLPRPRPRPFWRPRP | 0.252
86 | RRIRARPPRLPRPRPRPLDFPRP | 0.173
87 | RRIRKRPPRLPRPRPRPEFQPRP | 0.0241
88 | RRIRMRPPRLPRPRPRPPPPPRP | 2.05
89 | RRIRCRPPRLPRPRPRPVEIPRP | -0.296
90 | RRIRLRPPRLPRPRPRPEVSPRP | 0.254
91 | RRIRIRPPRLPRPRPRPDLGPRP | -0.0274
92 | RRIRDRPPRLPRPRPRPNTNPRP | -0.448
93 | RRIRQRPPRLPRPRPRPKPKPRP | 0.278
94 | RRIRIRPPRLPRPRPRPHRVPRP | -0.24
95 | RRIRRRPPRLPRPRPRPAWGPRP | 0.508
96 | RRIRKRPPRLPRPRPRPRGQPRP | 0.648
97 | RRIRRRPPRLPRPRPRPHERPRP | 0.225
98 | RRIRHRPPRLPRPRPRPMNVPRP | -0.0594
99 | RRIRHRPPRLPRPRPRPPYAPRP | -0.00375
100 | RRIRSRPPRLPRPRPRPIWVPRP | 0.0576

Row | Sequence | shrunken log2 fold change
101 | RRIRNRPPRLPRPRPRPKIRPRP | -0.0344
102 | RRIRKRPPRLPRPRPRPCQGPRP | -0.141
103 | RRIRERPPRLPRPRPRPYNYPRP | -0.519
104 | RRIRSRPPRLPRPRPRPHPRPRP | 0.375
105 | RRIRFRPPRLPRPRPRPFCYPRP | -0.372
106 | RRIRSRPPRLPRPRPRPALMPRP | 0.323
107 | RRIRNRPPRLPRPRPRPNMQPRP | -0.184
108 | RRIRPRPPRLPRPRPRPMDMPRP | -0.784
109 | RRIRYRPPRLPRPRPRPNFHPRP | -0.612
110 | RRIRTRPPRLPRPRPRPEYWPRP | -0.00483
111 | RRIRARPPRLPRPRPRPKGRPRP | 0.368
112 | RRIRLRPPRLPRPRPRPFRVPRP | 0.128
113 | RRIRNRPPRLPRPRPRPSYYPRP | -0.877
114 | RRIRVRPPRLPRPRPRPKQIPRP | -0.0455
115 | RRIRNRPPRLPRPRPRPQPKPRP | 0.0668
116 | RRIRDRPPRLPRPRPRPGEDPRP | -0.000687
117 | RRIRLRPPRLPRPRPRPYTSPRP | -0.33
118 | RRIRLRPPRLPRPRPRPYDWPRP | -0.218
119 | RRIRKRPPRLPRPRPRPMGTPRP | 0.335
120 | RRIRQRPPRLPRPRPRPHPVPRP | 0.0674
121 | RRIRERPPRLPRPRPRPMFFPRP | -0.0867
122 | RRIRPRPPRLPRPRPRPMMAPRP | 0.0466
123 | RRIRCRPPRLPRPRPRPTNAPRP | 0.307
124 | RRIRKRPPRLPRPRPRPLHEPRP | 1.06
125 | RRIRSRPPRLPRPRPRPCLGPRP | -0.127

Row | Sequence | shrunken log2 fold change
126 | RRIRQRPPRLPRPRPRPQEDPRP | -0.0264
127 | RRIRTRPPRLPRPRPRPMAAPRP | 0.0975
128 | RRIRMRPPRLPRPRPRPFHIPRP | -0.269
129 | RRIRCRPPRLPRPRPRPFHAPRP | -0.44
130 | RRIRGRPPRLPRPRPRPYYFPRP | 0.0211
131 | RRIRHRPPRLPRPRPRPEILPRP | -0.00654
132 | RRIRQRPPRLPRPRPRPVGCPRP | 0.23
133 | RRIRTRPPRLPRPRPRPGPWPRP | 0.215
134 | RRIRWRPPRLPRPRPRPAVAPRP | 0.544
135 | RRIRNRPPRLPRPRPRPLQFPRP | 0.0375
136 | RRIRIRPPRLPRPRPRPTVNPRP | -0.608
137 | RRIRPRPPRLPRPRPRPQGGPRP | 0.332
138 | RRIRRRPPRLPRPRPRPAFYPRP | 0.654
139 | RRIRSRPPRLPRPRPRPVEMPRP | 0.0369
140 | RRIRLRPPRLPRPRPRPVFAPRP | 0.223
141 | RRIRVRPPRLPRPRPRPGFAPRP | 0.299
142 | RRIRQRPPRLPRPRPRPKQHPRP | -0.239
143 | RRIRRRPPRLPRPRPRPVVCPRP | 0.0897
144 | RRIRHRPPRLPRPRPRPTIAPRP | 0.451
145 | RRIRNRPPRLPRPRPRPCGLPRP | 0.0441
146 | RRIRIRPPRLPRPRPRPQSYPRP | -0.603
147 | RRIRDRPPRLPRPRPRPWAGPRP | 0.0503
148 | RRIRLRPPRLPRPRPRPCWLPRP | 0.0345
149 | RRIRARPPRLPRPRPRPEAKPRP | 0.73
150 | RRIRYRPPRLPRPRPRPTNYPRP | 1.18
